According to the supplement of paper PMC9170038:

Test system: MS2 coat protein
Test: apparent KD of MS2 coat protein; designed switch direction (-1 OFF switch, 1 ON switch): -1; higher = weaker reporter binding
Method in brief: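 SNAP-549-labelled MS2 coat protein was titrated, doubling from 0.7 or 1.5 nM to 3 µM, over designed RNA switches transcribed on Illumina chips by stalled E. coli RNA polymerase. Runs were done without input, with 200 uM small-molecule ligand, or with an oligonucleotide input. Apparent KD is the per-design median over clusters of curve-fitted normalised fluorescence.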

[1] = Eterna round: R95, input ligand: microRNA oligo, concentration not stated
[2] = Eterna round: R95, input ligand: FMN 200 uM
[3] = Eterna round: R95, input ligand: none
[4] = input ligand: microRNA oligo, concentration not stated

Sequence	apparent KD of MS2 coat protein (input ligand: FMN 200 uM) [nM]	apparent KD of MS2 coat protein (input ligand: none) [nM]	apparent KD of MS2 coat protein [1] [nM]	apparent KD of MS2 coat protein [2] [nM]	apparent KD of MS2 coat protein [3] [nM]	apparent KD of MS2 coat protein [4] [nM]
AAGUCGACGGUGAGGAUAUAGGUCGAACGACCGAUCUAGAAGGCACAUGAGGAUCACCCAUGUGGGUAACGUCG [Brourd's EX4 #33] (Eterna round: R97, puzzle: Brourd's mod of Exclusion 4)	29	22.3	–	–	–	–
UUAUACGUUGAGGAUAUGUCAUUUAGUAUAGUUACAGAAGGCGAUACAUGAGGAUCACCCAUGUUUAUGGGCAU [Ex-6 Malc#2] (puzzle: Exclusion 6)	–	–	166	–	–	–
AAACGUGCGAAGGAUAUCCAUCCACCCUGGAAAGGAGAAGGUCGCACAUGAGGAUCACCCAUGUGUGCCUAAAA [Zalave] (puzzle: Exclusion 6)	–	–	11.4	26.6	11.8	–
CUUGUUUAUGUAGGAUAUGCCUGGCGUGCCUUUGCAGAAGGACAUGAGGAUCACCCAUGUAUUGCGGUCUGCGUUCAGAUCGCC [salish99_ExNG1_r4_042] (Eterna round: R96, puzzle: Exclusion NG 1)	34.9	22	–	–	–	18.9
UUUAUGUGAGGAUAUAGUACUCCUUCUAUUAUUUUUGAGUACUAGAAGGCACAUGAGGAUCACCCAUGUAGUAC [Ex4 - 3 - 38] (puzzle: Exclusion 4)	–	–	22.1	–	–	–
CGAUGAGGAGUGAGGAUAUCGUGUUCGAAAGAACGUGAGAAGGCACAUGAGGAUCACCCAUGUGAUCCUCAUGG [Omei Ex4B A23] (Eterna round: R97, puzzle: Brourd's mod of Exclusion 4)	1030	164	–	–	–	–
UAUUUAGCAAGCAGAUCCCACAUGAGGAUCACCCAUGUUUUCUGAAAAUAAAUUAAAAUAGCUGAAGCUCGUCUUAU [Winner reversed engineered 38] (Eterna round: R97, puzzle: Sensor, turn-off variant 1)	139	137	–	–	–	–
UAAGUUUACCGAGGAUAUGGUUUUUCCUAUUAACCAGAAGGCGGACUCAACAUGAGGAUCACCCAUGUAUAAAGGGUAUUAGGU [JR_ExcNG1_Sub044] (Eterna round: R96, puzzle: Exclusion NG 1)	88.5	74.2	–	–	–	68
AUAAUGUCAGGAUAUCGAGACUACUGCCUCGGCAGUAGUCUCGAGAAGGGACAUGAGGAUCACCCAUGUGAUCA [E4/1-A2] (Eterna round: R97, puzzle: Exclusion 4)	831	45.2	–	–	–	–
AGCUAGUGAGGAUAUACGAACAUGUCAAAAGACUGUAAGGGACAUGAGGAUCACCCAUGUAGAAGGCACUAGCA [Diamond 55] (Eterna round: R96, puzzle: Exclusion 2)	–	–	–	–	–	32.4
UGUUGUCGCGCAGGAUAUUGUCAACAGGCAGUAGGAUAUCCGAAAGGAGAAGGACCGCCAACAGGCGAGAAGGGCGGGACAACU [pwkr exNG2 2xF7 2xFMN.9] (Eterna round: R96, puzzle: Exclusion NG 2)	32.1	16	–	–	–	35.7
GAGUUAGCGUGUGGAAUAUACAUGAGGAUCACCCAUGUUAGCUUAUAUAUUGCUCGUCUUAUAACAACACUUAACUG [Mod JX-Electric-eye4] (Eterna round: R97, puzzle: Sensor, turn-off variant 1)	42.7	45.8	–	–	–	–
AGUUAUGUAGGAUAUGCACGUGACAACUUGAGGAUCACCCAAGUGAUUGCAGGCUGGGCGGCAGAAGGGCAGUUGU [Diedbi] (Eterna round: R97, puzzle: Exclusion 5)	153	104	–	–	–	–
AACCUAAGGCAAAGCUUUAGGUGUACAUGAGGAUCACCCAUGUAGGAUAUGGUAGGCAAAGCUUACCAGAAGGACAUUAUGAUA [Mat - Exclusion NG 3 - Mod of JL - D53] (Eterna round: R96, puzzle: Exclusion NG 3)	82.1	55.2	–	–	–	27.5
GACCCACAUGAGGAUCACCCAUGUCAGGAUAUGCAGUUGGAUGCGUCAGAUUUCCAUAGCAGAAGGGAUCUGGC [Eternabot (Original) Solution 14] (Eterna round: R97, puzzle: Exclusion 1)	16.5	18.2	–	–	–	–
GAUGGACAUGAGGAUCACCCAUGUAAGGAUAUUGUUUGUGGCUAGUUUUGGUUACGGGCGAGAAGGUACUCGUC [-19.7, -16.7 kcal, A 23%] (Eterna round: R97, puzzle: Exclusion 1)	39.7	47.7	–	–	–	–
UAUUAACAAGCAAGAUCCCACAUGAGGAUCACCCAUGUGCUCGUCUUAUAAGGUACUGUGACGAAAGUCACGGUACC [Sensor 3, v1 - 80] (puzzle: Sensor v3, turn-off variant 1)	–	–	580	26.5	28	–

Sequence	apparent KD of MS2 coat protein (input ligand: FMN 200 uM) [nM]	apparent KD of MS2 coat protein (input ligand: none) [nM]	apparent KD of MS2 coat protein [1] [nM]	apparent KD of MS2 coat protein [2] [nM]	apparent KD of MS2 coat protein [3] [nM]	apparent KD of MS2 coat protein [4] [nM]
GGAUCGAGUGUGAGGAUAUGCUGGUCCUUGGAUCAGCAGAAGGCACAUGAGGAUCACCCAUGUGAAUACGGUCC [JL bmx4 3.15] (puzzle: Brourd's mod of Exclusion 4)	–	–	23.8	–	–	–
AUCAGCUCGUCAGGAUAUAUUAACAUGAGGAUCACCCAUGUAAGAUCAGGCUUCGGCCAAUGUUAAUAGAAGGGACGAGCUGAU [ENG2/12-B2] (Eterna round: R96, puzzle: Exclusion NG 2)	710	133	–	–	–	29
GUCGCUUUUUGUUUGUUUUACAUGAGGAUCACCCAUGUACGUUGGUUACAAUAAAGUUCCGUGGCGGAUCAAUCUGA [Eternabot (L1) Solution 12] (Eterna round: R97, puzzle: Sensor, turn-off variant 1)	24.9	28.2	–	–	–	–
CGAGAGCGAGGAUAUACACAACUCCUCACUGUCAAGAAAGGACAUGAGGAUCACCCAUGUAGAAGGUGCAAAAC [Quries] (puzzle: Exclusion 2)	–	–	125	215	120	–
AUAAGCUUUGAGAUCCUUAACAUGAGGAUCACCCAUGUUCGUCUUAUGAUGGUCUGAUCCCUGAGGAUCGGACCGUG [Mat - Sensor v3 - turn-off var 1 - JL Mod - D2] (puzzle: Sensor v3, turn-off variant 1)	–	–	5.74	277	380	–
UCAUGGUAGCAGGAUAUGCUUGUUUUUUUUUUUGCAGAAGGGCUUACAUGAGGAUCACCCAUGUGAGAGGUCUA [JR_E6_Sub066] (puzzle: Exclusion 6)	–	–	19.9	–	–	–
GAUUAUGCGAGCUUUAGGGACAUGAGGAUCACCCAUGUUCGUCUUAUUGGUCUGAGUACACUAACAUACCUAAAUCU [JMF 15] (puzzle: Sensor v3, turn-off variant 1)	–	–	26.4	18.3	20.3	–
AGGUGCUUCAGGAGACAUGAGGAUCACCCAUGUUGAGUUAGCGAGGAUAUCGGUAACCCUUGUGAUGAGAAGGCGCAAACCAGU [Ex NG3 #45] (Eterna round: R96, puzzle: Exclusion NG 3)	39.5	29.1	–	–	–	14.4
ACAAGCUUUUUGCAUGUUAGUUUUGUUGCUUCGUAUGUAACAUGAGGAUCACCCAUGUAAGACUGAUGUCGUCGUUU [JR_SV3TOV2_Sub088] (puzzle: Sensor v3, turn-off variant 2)	–	–	47.8	44.9	61.6	–
GGAGUUAGAGAGGAUAUGGAGGAGAGGCCAAUUCCAGAAGGUUCAACAUGAGGAUCACCCAUGUAUUUUCCUCA [AK-MS2ROC-r4-exclusion6-2] (Eterna round: R97, puzzle: Exclusion 6)	25.6	33.8	–	–	–	–
GGUACUAUCACCUGAGUGGUAGUGCCAUAAGCUUGUGAUACAUGAGGAUCACCCAUGUCCUCAUUUGCUCGUCUUAU [JL-sv3-2.27 JL mod] (puzzle: Sensor v3, turn-off variant 2)	–	–	394	486	–	–
GGUUGGCGAGGAUAUACAUGAGGAUCACCCAUGUGAGAGUAAAAAGUGAGGAAGAAAAGUAGAAGGCGCUGACG [salish99_ex3_r3_011] (puzzle: Exclusion 3)	–	–	36.3	68.6	44	–
CGUCUGUAAGGAUAUGGUUACAUAGACAUGAGGAUCACCCAUGUGACGUGGGACUAGUGAUUAGAAGGUACGAACG [EX5 #66] (Eterna round: R97, puzzle: Exclusion 5)	77	78.6	–	–	–	–
CAGUACUGAGGAUAUACAUGAGGAUCACCCAUGUGUUCCAGGUAGGAAACUAGCAAAAGUAGAAGGCAGUACUG [salish99_ex3_r3_078] (Eterna round: R96, puzzle: Exclusion 3)	–	–	–	–	–	17.5
GUAGAGUCAGGAUAUACGAGAUCGAUAGAUCGGCGAUCCCUACAUGAGGAUCACCCAUGUAGAAGGGACUCUAC [Mat - Exclusion 2 - Eli Mod - D12] (Eterna round: R97, puzzle: Exclusion 2)	37.6	15.6	–	–	–	–
ACGAUGACCGAAAAGUGUUAACUGACAUGAGGAUCACCCAUGUAGGAUAUGGCUACGAAAAGUAGUCAGAAGGGCAUGUCAUCA [Omei Exc(NG) 3 Av8] (Eterna round: R96, puzzle: Exclusion NG 3)	27	27.3	–	–	–	18.7
CAGUACUGAGGAUAUACAUGAGGAUCACCCAUGUGUCUUCUCCUAGGAAACUAGGUAUGUAGAAGGCAGUACUG [Omei Ex3 Mod of Eli 4.27 v1] (Eterna round: R97, puzzle: Exclusion 3)	1370	40	–	–	–	–
